koff, kon and Kd data for one molecule are collected here from paper PMC5680790 (mAbs, 2017).

One may read the koff as a measure of how fast the partners let go of each other. Read a high koff as a short-lived complex. The term kon denotes the second-order rate constant of association. Usually Kd stands for the free concentration of one partner at which half of the binding sites on the other are occupied at equilibrium, for simple one-to-one binding. A high value points to lower affinity.

Test [1] deals with T1, EGFR-ECD (UniProt P00533 25-645). The test can be described thus: BLI. A general note: BLI is a label-free optical method that tracks binding on a fibre tip over time.
For test [2], the target named is T1, EGFR-ECD. Briefly: BLI. The source holds these as a separate data set.

B1: Anti-EGFR mAb (antibody, V domains shown)
VH: EVQLVESGGGLVQPGGSLRLSCAASGFSLTNRGVHWVRQAPGKGLEWVGVIWSGGNTDYNTPFTSRFTISRDNSKNTLYLQMNSLRAEDTAVYYCARALTYYDYEFAYWGQGTLVTVSS
VL: not shown
On to B1, for which, in the test with EGFR-ECD [1], the koff is 0.00034 s⁻¹ and the kon came out at 350000 M⁻¹ s⁻¹. Also, in the test with EGFR-ECD [2], the Kd is ~1 nM.
